The source of these data is patent US8632988.

One experiment has as its target human hemoglobin (human) (UniProt P69905). Kind of experiment: cell-based or functional assay.
Another experiment has as its target mouse hemoglobin (mouse) (UniProt P01942). Briefly: cell-based or functional assay.
Chain of UniProt P01942 (P01942 2-142, chain 1 of 2): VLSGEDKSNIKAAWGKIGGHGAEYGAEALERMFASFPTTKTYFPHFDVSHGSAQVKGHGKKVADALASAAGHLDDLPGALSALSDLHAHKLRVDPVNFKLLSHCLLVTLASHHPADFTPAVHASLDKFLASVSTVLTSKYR
Chain of UniProt P01942 (P02088 2-147, chain 2 of 2, further chain): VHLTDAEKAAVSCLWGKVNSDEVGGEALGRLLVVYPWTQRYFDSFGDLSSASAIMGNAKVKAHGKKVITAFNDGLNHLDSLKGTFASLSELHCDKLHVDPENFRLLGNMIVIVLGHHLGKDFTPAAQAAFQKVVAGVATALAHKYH

Chain of UniProt P69905 (P69905 2-142, chain 1 of 2): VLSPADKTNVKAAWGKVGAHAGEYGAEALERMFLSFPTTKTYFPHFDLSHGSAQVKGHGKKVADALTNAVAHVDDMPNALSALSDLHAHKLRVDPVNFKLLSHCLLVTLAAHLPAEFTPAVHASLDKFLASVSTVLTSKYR
Chain of UniProt P69905 (P68871 2-147, chain 2 of 2, further chain): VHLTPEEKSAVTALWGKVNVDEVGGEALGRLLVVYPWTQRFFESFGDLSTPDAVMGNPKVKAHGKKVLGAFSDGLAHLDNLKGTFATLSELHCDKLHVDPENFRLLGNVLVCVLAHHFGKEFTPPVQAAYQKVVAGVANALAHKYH

Consider “IsdB on the cell wall of iron-starved S. aureus strain Newman (from UniProt A6QG30 41-613) (receptor)”, for which the time at which growth appears around hemoglobin disks on iron-deficient solid medium with human hemoglobin (human) was found to be 24 h; with mouse hemoglobin (mouse) it was 72 h.
